One experiment concerns the target CLR/RAMP1 receptor (UniProt Q16602 23-461; O60894 27-148, limits assumed). The experiment is described as follows: cell-based or functional assay.
Another experiment has as its target CLR/RAMP2 receptor (UniProt Q16602 23-461; O60895 43-175, limits assumed). The experiment in a line: cell-based or functional assay.

The text below walks through data of patent publication US20190010203A1 (ADEPTHERA, published 2019).

Non-standard residues stand in square brackets, D forms with d. No end group written: not given here. *: point of attachment. Palmitoyl = CCCCCCCCCCCCCCCC(=O)*; AEEEA = NCCOCCOCCOCC(=O)O

Sequence of CLR/RAMP2 receptor (Q16602 23-461 limits assumed, chain 1 of 2): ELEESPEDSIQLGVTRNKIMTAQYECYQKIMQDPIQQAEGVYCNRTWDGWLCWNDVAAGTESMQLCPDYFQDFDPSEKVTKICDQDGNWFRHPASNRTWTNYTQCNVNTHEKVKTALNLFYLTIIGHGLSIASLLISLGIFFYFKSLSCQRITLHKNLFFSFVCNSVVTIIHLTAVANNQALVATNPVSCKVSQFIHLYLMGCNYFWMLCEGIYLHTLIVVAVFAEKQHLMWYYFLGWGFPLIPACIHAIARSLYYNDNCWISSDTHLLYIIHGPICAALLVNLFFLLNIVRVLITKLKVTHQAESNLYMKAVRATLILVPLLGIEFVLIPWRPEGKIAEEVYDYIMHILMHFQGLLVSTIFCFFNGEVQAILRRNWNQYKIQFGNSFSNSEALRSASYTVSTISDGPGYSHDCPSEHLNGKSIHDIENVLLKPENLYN
Sequence of CLR/RAMP2 receptor (O60895 43-175 limits assumed, chain 2 of 2): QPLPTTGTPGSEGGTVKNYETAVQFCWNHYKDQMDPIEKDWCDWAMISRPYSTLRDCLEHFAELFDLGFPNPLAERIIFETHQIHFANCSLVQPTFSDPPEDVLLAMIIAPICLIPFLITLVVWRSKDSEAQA
Sequence of CLR/RAMP1 receptor (Q16602 23-461 limits assumed, chain 1 of 2): as the sequence (Q16602 23-461 limits assumed, chain 1 of 2) above
Sequence of CLR/RAMP1 receptor (O60894 27-148 limits assumed, chain 2 of 2): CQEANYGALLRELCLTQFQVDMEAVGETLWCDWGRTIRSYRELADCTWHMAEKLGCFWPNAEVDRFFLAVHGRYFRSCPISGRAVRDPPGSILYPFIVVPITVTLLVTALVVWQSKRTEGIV

B1: SEQ ID NO: 41 (peptide)
peptide: Ac-TK(Palmitoyl)KTLRTGCRFGTCTVQKLAHQIYQFTDKDKDNVAPVDPSSPHSY-NH2
modifications: ends and bridges not checked
In the case of B1, the “EC50 (nM), CLR/RAMP1 cAMP assay” value with CLR/RAMP1 receptor came to 0.4 nM. Also, in the experiment with CLR/RAMP2 receptor, the “EC50 (nM), CLR/RAMP2 arrestin assay” value amounted to 0.9 nM.

B2: SEQ ID NO: 73 (peptide)
peptide: KGCRFGTCTVQKLAHQIYQFTDKDKDNVAPRSKISPQGY
modifications: N-terminal palmitoyl (Pal); palmitoyl on Lys 1 side chain, K(Pal); C-terminal amide
B2: the “EC50 (nM), CLR/RAMP1 cAMP assay” value with CLR/RAMP1 receptor came out at 34 nM. For the same molecule, in the experiment with CLR/RAMP2 receptor, the “EC50 (nM), CLR/RAMP2 arrestin assay” value is 49 nM.

B3: SEQ ID NO: 59 (peptide)
peptide: Ac-KGCRFGTCTVQKLAHQIYQFTDKDKDNSAPVDPSSPHSY-NH2
modifications: ends and bridges not checked
In the case of B3, in the experiment with CLR/RAMP1 receptor, the “EC50 (nM), CLR/RAMP1 cAMP assay” value came out at 31 nM. Moreover, the “EC50 (nM), CLR/RAMP2 arrestin assay” value with CLR/RAMP2 receptor turned out to be 18 nM.

B4: SEQ ID NO: 45 (peptide)
peptide: Palmitoyl-GCRFGTCTVQKLAHQIYQFTDKDKDNSAPVDPSSPHSY-NH2
modifications: ends and bridges not checked
For B4, the “EC50 (nM), CLR/RAMP1 cAMP assay” value with CLR/RAMP1 receptor was 0.1 nM. Also, the “EC50 (nM), CLR/RAMP2 arrestin assay” value with CLR/RAMP2 receptor amounted to 0.3 nM.

B5: SEQ ID NO: 30 (peptide)
peptide: Palmitoyl-KGCRFGTCTVQKLAHQIYQFTDKDKDNSAPVDPSSPHSY-NH2
modifications: ends and bridges not checked
As to B5, in the experiment with CLR/RAMP1 receptor, the “EC50 (nM), CLR/RAMP1 cAMP assay” value is 0.4 nM. In addition, the “EC50 (nM), CLR/RAMP2 arrestin assay” value in the experiment with CLR/RAMP2 receptor worked out at 0.6 nM.

B6: SEQ ID NO: 44 (peptide)
peptide: Palmitoyl-KCRFGTCTVQKLAHQIYQFTDKDKDNSAPVDPSSPHSY-NH2
modifications: ends and bridges not checked
For B6, in the experiment with CLR/RAMP1 receptor, the “EC50 (nM), CLR/RAMP1 cAMP assay” value was 0.1 nM. The “EC50 (nM), CLR/RAMP2 arrestin assay” value with CLR/RAMP2 receptor worked out at 0.2 nM.

B7: SEQ ID NO: 50 (peptide)
peptide: miniPEG-K(Palmitoyl)GCRFGTCTVQKLAHQIYQFTDKDKDNVAPVDPSSPHSY-NH2
modifications: cysteine pairing not given here
Take B7: in the experiment with CLR/RAMP1 receptor, the “Max Activity % of positive control, CLR/RAMP1 cAMP assay” value (shortened to “Max Activity % … CLR/RAMP1 cAMP assay”) was 65 % of positive control. In addition, the “Max Activity % of positive control, CLR/RAMP2 arrestin assay” value (“Max Activity % … CLR/RAMP2 arrestin assay” for short) with CLR/RAMP2 receptor is 87 % of positive control.

B8: SEQ ID NO: 39 (peptide)
peptide: Ac-TK(Palmitoyl)KTLRTGCRFGTCTVQKLAHQIYQFTDKDKDNSAPVDPSSPHSY-NH2
modifications: ends and bridges not checked
In the case of B8, in the experiment with CLR/RAMP1 receptor, the “EC50 (nM), CLR/RAMP1 cAMP assay” value was 0.2 nM. For the same molecule, the “EC50 (nM), CLR/RAMP2 arrestin assay” value in the experiment with CLR/RAMP2 receptor is 0.5 nM.

B9: SEQ ID NO: 57 (peptide)
peptide: Ac-VGCRFGTCTVQKLAHQIYQFTPAGRQDSAPVDPSSPHSY-NH2
modifications: ends and bridges not checked
For B9, the “EC50 (nM), CLR/RAMP1 cAMP assay” value in the experiment with CLR/RAMP1 receptor was determined as 909 nM. The “EC50 (nM), CLR/RAMP2 arrestin assay” value in the experiment with CLR/RAMP2 receptor worked out at 149 nM.

B10: SEQ ID NO: 60 (peptide)
peptide: Ac-KGCRFGTCTVQKLAHQIYQFTDKDKDNVAPVDPSSPHSY-NH2
modifications: ends and bridges not checked
In the case of B10, the “EC50 (nM), CLR/RAMP1 cAMP assay” value in the experiment with CLR/RAMP1 receptor stood at 16 nM. Moreover, in the experiment with CLR/RAMP2 receptor, the “EC50 (nM), CLR/RAMP2 arrestin assay” value came to 3 nM.

B11: SEQ ID NO: 51 (peptide)
peptide: [AEEEA]K(Palmitoyl)GCRFGTCTVQKLAHQIYQFTDKDKQDSAPVDPSSPHSY-NH2
modifications: ends and bridges not checked
For the molecule B11, the “EC50 (nM), CLR/RAMP2 arrestin assay” value in the experiment with CLR/RAMP2 receptor is 0.3 nM.

B12: SEQ ID NO: 94 (peptide)
peptide: miniPEG-K(Palmitoyl)GCRFGTCTVQKLAHQIYQFTDKDKDNVDPSSPHSY-NH2
modifications: cysteine pairing not given here
As for B12, the “Max Activity % … CLR/RAMP1 cAMP assay” value with CLR/RAMP1 receptor is 67 % of positive control. Further, the “Max Activity % … CLR/RAMP2 arrestin assay” value in the experiment with CLR/RAMP2 receptor is 82 % of positive control.

B13: SEQ ID NO: 46 (peptide)
peptide: [AEEEA]K(Palmitoyl)GCRFGTCTVQKLAHQIYQFTDKDKDSAPVDPSSPHSY-NH2
modifications: ends and bridges not checked
B13: in the experiment with CLR/RAMP2 receptor, the “EC50 (nM), CLR/RAMP2 arrestin assay” value worked out at 0.5 nM and the “Max Activity % … CLR/RAMP2 arrestin assay” value was 104 % of positive control.

B14: SEQ ID NO: 31 (peptide)
peptide: Palmitoyl-KGCRFGTCTVQKLAHQIYQFTPAGRQDSAPVDPSSPHSY-NH2
modifications: ends and bridges not checked
As to B14, in the experiment with CLR/RAMP1 receptor, the “EC50 (nM), CLR/RAMP1 cAMP assay” value worked out at 0.8 nM. In the experiment with CLR/RAMP2 receptor, the “EC50 (nM), CLR/RAMP2 arrestin assay” value amounted to 0.9 nM.

B15: SEQ ID NO: 34 (peptide)
peptide: Palmitoyl-KGCRFGTCTVQKLAHQIYQFTDKDKDNVAPVDPSSPHSY-NH2
modifications: ends and bridges not checked
As for B15, the “EC50 (nM), CLR/RAMP1 cAMP assay” value in the experiment with CLR/RAMP1 receptor came out at 0.2 nM. For the same molecule, the “EC50 (nM), CLR/RAMP2 arrestin assay” value in the experiment with CLR/RAMP2 receptor is 0.7 nM.

B16: SEQ ID NO: 62 (peptide)
peptide: [AEEEA]K(Palmitoyl)GCRFGTCTVQKLAHLWQLMGPAGRQDSAPVDPSSPHSY-NH2
modifications: ends and bridges not checked
Turning to B16, the “Max Activity % … CLR/RAMP1 cAMP assay” value with CLR/RAMP1 receptor was 2 % of positive control.

B17: SEQ ID NO: 40 (peptide)
peptide: Palmitoyl-KTKKTLRTGCRFGTCTVQKLAHQIYQFTDKDKDNVAPVDPSSPHSY-NH2
modifications: not fully specified; printed as Pal-KTKKTLRTGCRFGTCTVQKLAHQIYQFTDKDKDNVAPVDPSSPHSY-NH2; ends and bridges not checked
Regarding B17, the “EC50 (nM), CLR/RAMP1 cAMP assay” value with CLR/RAMP1 receptor is 2 nM. In the experiment with CLR/RAMP2 receptor, the “EC50 (nM), CLR/RAMP2 arrestin assay” value came out at 1 nM.

B18: SEQ ID NO: 36 (peptide)
peptide: Palmitoyl-KGCRFGTCTVQKLAHQIYQFTDKGRQDSAPVDPSSPHSY-NH2
modifications: ends and bridges not checked
As for B18, in the experiment with CLR/RAMP1 receptor, the “EC50 (nM), CLR/RAMP1 cAMP assay” value is 0.6 nM. Besides, the “EC50 (nM), CLR/RAMP2 arrestin assay” value in the experiment with CLR/RAMP2 receptor worked out at 0.9 nM.

B19: SEQ ID NO: 33 (peptide)
peptide: Ac-K(Palmitoyl)GCRFGTCTVQKLAHQIYQFTPAGRQDSAPVDPSSPHSY-NH2
modifications: ends and bridges not checked
Take B19: the “EC50 (nM), CLR/RAMP1 cAMP assay” value in the experiment with CLR/RAMP1 receptor stood at 0.3 nM. Further, in the experiment with CLR/RAMP2 receptor, the “EC50 (nM), CLR/RAMP2 arrestin assay” value turned out to be 0.4 nM.

B20: SEQ ID NO: 110 (peptide)
peptide: Palmitoyl-KGCRFGTCTVQKLAHQIYQFTDKDAPVDPSSPHSY-NH2
modifications: ends and bridges not checked
Regarding B20, the “EC50 (nM), CLR/RAMP1 cAMP assay” value with CLR/RAMP1 receptor was found to be 43 nM. For the same molecule, in the experiment with CLR/RAMP2 receptor, the “EC50 (nM), CLR/RAMP2 arrestin assay” value stood at 6.4 nM.

B21: SEQ ID NO: 70 (peptide)
peptide: miniPEG-K(Palmitoyl)TKKTLRTGCRFGTCTVQKLAHQIYQFTDKDKDNVAPRSKISPQGY-NH2
modifications: ends and bridges not checked
With B21, the “Max Activity % … CLR/RAMP1 cAMP assay” value with CLR/RAMP1 receptor is 69 % of positive control. Further, the “Max Activity % … CLR/RAMP2 arrestin assay” value in the experiment with CLR/RAMP2 receptor is 68 % of positive control.

B22: SEQ ID NO: 38 (peptide)
peptide: Palmitoyl-KTKKTLRTGCRFGTCTVQKLAHQIYQFTDKDKDNSAPVDPSSPHSY-NH2
modifications: not fully specified; printed as Pal-KTKKTLRTGCRFGTCTVQKLAHQIYQFTDKDKDNSAPVDPSSPHSY-NH2; ends and bridges not checked
In the case of B22, the “EC50 (nM), CLR/RAMP1 cAMP assay” value in the experiment with CLR/RAMP1 receptor amounted to 0.5 nM. For the same molecule, in the experiment with CLR/RAMP2 receptor, the “EC50 (nM), CLR/RAMP2 arrestin assay” value came to 0.7 nM.

B23: SEQ ID NO: 42 (peptide)
peptide: miniPEG-TK(Palmitoyl)KTLRTGCRFGTCTVQKLAHQIYQFTDKDKDNVAPVDPSSPHSY-NH2
modifications: cysteine pairing not given here
Turning to B23, in the experiment with CLR/RAMP2 receptor, the “EC50 (nM), CLR/RAMP2 arrestin assay” value came out at 0.2 nM.

B24: SEQ ID NO: 65 (peptide)
peptide: Ac-K(Palmitoyl)GCRFGTCTVQKLAHQIYQFTDKDKDNVAPRSKSSPHSY-NH2
modifications: ends and bridges not checked
As to B24, the “EC50 (nM), CLR/RAMP1 cAMP assay” value in the experiment with CLR/RAMP1 receptor was 234 nM.

B25: human ADM, SEQ ID NO: 53 (peptide)
peptide: Ac-FGCRFGTCTVQKLAHQIYQFTDKDKDNVAPRSKISPQGY-NH2
modifications: cysteine pairing not given here
In the case of B25, in the experiment with CLR/RAMP1 receptor, the “Max Activity % … CLR/RAMP1 cAMP assay” value is 69 % of positive control. The “Max Activity % … CLR/RAMP2 arrestin assay” value in the experiment with CLR/RAMP2 receptor was 102 % of positive control.

B26: SEQ ID NO: 47 (peptide)
peptide: miniPEG-K(Palmitoyl)GCRFGTCTVQKLAHQIYQFTDKDKSAPVDPSSPHSY-NH2
modifications: ends and bridges not checked
With B26, the “Max Activity % … CLR/RAMP1 cAMP assay” value with CLR/RAMP1 receptor was 85 % of positive control. In the experiment with CLR/RAMP2 receptor, the “EC50 (nM), CLR/RAMP2 arrestin assay” value turned out to be 0.4 nM and the “Max Activity % … CLR/RAMP2 arrestin assay” value was 64 % of positive control.

B27: SEQ ID NO: 43 (peptide)
peptide: [AEEEA]K(Palmitoyl)CRFGTCTVQKLAHQIYQFTDKDKDNSAPVDPSSPHSY-NH2
modifications: ends and bridges not checked
As for B27, in the experiment with CLR/RAMP1 receptor, the “EC50 (nM), CLR/RAMP1 cAMP assay” value was determined as 0.5 nM and the “Max Activity % … CLR/RAMP1 cAMP assay” value was 39 % of positive control. Also, in the experiment with CLR/RAMP2 receptor, the “EC50 (nM), CLR/RAMP2 arrestin assay” value is 0.2 nM and the “Max Activity % … CLR/RAMP2 arrestin assay” value was 30 % of positive control.

B28: SEQ ID NO: 35 (peptide)
peptide: Palmitoyl-KGCRFGTCTVQKLAHQIYQFTDKDKQDSAPVDPSSPHSY-NH2
modifications: ends and bridges not checked
Regarding B28, the “EC50 (nM), CLR/RAMP1 cAMP assay” value with CLR/RAMP1 receptor is 0.8 nM. Besides, in the experiment with CLR/RAMP2 receptor, the “EC50 (nM), CLR/RAMP2 arrestin assay” value came out at 1 nM.

B29: SEQ ID NO: 93 (peptide)
peptide: Ac-KGCRFGTCTVQKLAHQIYQFTDKDSAPVDPSSPHSY-NH2
modifications: ends and bridges not checked
Consider B29, for which the “EC50 (nM), CLR/RAMP1 cAMP assay” value with CLR/RAMP1 receptor amounted to 771 nM. Further, the “EC50 (nM), CLR/RAMP2 arrestin assay” value with CLR/RAMP2 receptor is 17 nM.

B30: SEQ ID NO: 56 (peptide)
peptide: Ac-VGCRFGTCTVQKLAHQIYQFTDKDKDNSAPVDPSSPHSY-NH2
modifications: ends and bridges not checked
On to B30, for which the “EC50 (nM), CLR/RAMP1 cAMP assay” value in the experiment with CLR/RAMP1 receptor is 224 nM. In addition, in the experiment with CLR/RAMP2 receptor, the “EC50 (nM), CLR/RAMP2 arrestin assay” value turned out to be 17 nM.
